For assay [1], the target named is collagen I (purified, Sigma; acid-soluble human collagen type I in BIAcore) (human) (UniProt P02452). In words: SPR (BIAcore), biphasic dissociation from collagen I, component Koff2. A general note: In SPR one partner is held on a chip, and binding of the other changes the refractive index at the surface.
Assay [2] has the same target. Description: SPR (BIAcore), biphasic dissociation from collagen I, component Koff1.
Assay [3] shares this target. In words: SPR (BIAcore), equilibrium binding to immobilised collagen I.

Among the data in US20090304686A1, “INTERFERING IN ACTIVATION OF AN IMMUNE CELL BY INFLUENCING INTERACTION OF LAIR AND COLLAGEN” (UNIVERSOTAIR MEDISCH CENTRUM UTRECHT, priority 2006, published 2009) are koff and Kd values, retold here.

B1: hLAIR-1-IgG (extracellular domain of human LAIR-1 fused to the Fc region of human IgG1) (Fc fusion, UniProt Q6GTX8 22-165, looked up, not shown: a dimerising Fc or GST)
chain: QEEDLPRPSISAEPGTVIPLGSHVTFVCRGPVGVQTFRLERDSRSTYNDTEDVSQASPSESEARFRIDSVREGNAGLYRCIYYKPPKWSEQSDYLELLVKESSGGPDSPDTEPGSSAGPTQRPSDNSHNEHAPASQGLKAEHLY
With B1, the off-rate constant (koff) (in general, the first-order rate constant of dissociation) in assay [1] stood at 0.00187 s⁻¹; in assay [2], 0.000142 s⁻¹. The Kd – broadly, the equilibrium constant for the complex coming apart – in assay [3] stood at 14.2 nM.
